Data published in the supplement of paper PMC12764529.
± gives the half width of the 95% confidence interval.

Key:
[1] = folding stability dG unfold (combined trypsin and chymotrypsin); higher = more stable
How it was run: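 K50 was inferred by Bayesian fitting of sequencing counts obtained after protease digestion of designed mini-proteins. Unfolding free energy was derived by comparison with a sequence-predicted unfolded-state K50 and a shared folded-state K50, for each protease or both combined. The mini-proteins were under 80 residues, had no cysteine, were carried in a PA-tagged cDNA display construct, and were kept only if AlphaFold2 dimer inter-PAE exceeded 15.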

[2] = folding stability dG unfold from trypsin proteolysis; higher = more stable
Description: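 Folding stability of de novo designed mini-proteins (<80 aa, no Cys; designed by TrROS, TrMRF, ProteinMPNN and the joint model) was measured by cDNA display proteolysis with trypsin and chymotrypsin. Each protease was used at 11 concentrations in a threefold dilution series plus a no-protease condition. K50 was inferred by Bayesian fitting of sequencing counts, and dG unfold was derived against a sequence-predicted unfolded-state K50 (Tsuboyama et al. method). Sequences shown include variable-length N-terminal GS-type padding (SAGGSAGG...) inside a display construct carrying a PA tag. Rows were kept only if the AF2 dimer inter-PAE was >15, to exclude likely homo-oligomers.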

SAGGSAGGSAGGSGSSIPIVVEEKPEVSEDPSRVVLTTKIILKDPNGNSIETITEVELKSAGGSAGGSAGGS [r4_75_JUSTAS]
folding stability dG unfold [1]: < -1 kcal/mol | folding stability dG unfold [2]: -0.492 ± 0.066 kcal/mol

SAGGSAGGSAGGSKKTLPFPSVEDVVKYLKDLGLKDVKVDLPPGDLTINLDEIEEALKESAGGSAGGSAGGS [r4_101_TrMRF]
folding stability dG unfold [1]: < -1 kcal/mol | folding stability dG unfold [2]: -0.957 ± 0.57 kcal/mol

SAGGSAGGSAGGSMPVEILEVEEADPETGIRTYKLRDPVIGVESTIEGPLSPEEIEALLSAGGSAGGSAGGS [r4_228_JUSTAS]
folding stability dG unfold [1]: < -1 kcal/mol | folding stability dG unfold [2]: -0.808 ± 0.55 kcal/mol

SAGGSAGGSAGGSMPYVVVVKYPDGSTVTFPPGEDINVKVSPDKKGVEVVSVVPLSELLSAGGSAGGSAGGS [r4_122_JUSTAS]
folding stability dG unfold [1]: -0.332 ± 0.2 kcal/mol | folding stability dG unfold [2]: 0.179 ± 0.054 kcal/mol

SAGGSAGGSAGGSMYVIVTVPPGERLTFPLNPEIDVPEEEIKEKLKKELPVESIEILLPSAGGSAGGSAGGS [r4_116_JUSTAS]
folding stability dG unfold [1]: -0.813 ± 0.99 kcal/mol | folding stability dG unfold [2]: -0.362 ± 0.19 kcal/mol

SAGGSAGGSAGGSPLIVEFKGDELRNTIPSGFEVLSEERDPELGYVRAALRALGSGETLSAGGSAGGSAGGS [r4_435_TrMRF]
folding stability dG unfold [1]: < -1 kcal/mol | folding stability dG unfold [2]: -0.707 ± 0.27 kcal/mol

SAGGSAGGSAGGTEEEALEKAERLAKELGVDLKDVKILNPPDKFEAVFTIPGTGENIKLSAGGSAGGSAGGS [r10_161_JUSTAS]
folding stability dG unfold [1]: -0.601 ± 0.97 kcal/mol | folding stability dG unfold [2]: -0.505 ± 0.46 kcal/mol

SAGGSAGGSAGGTIRDAVKEGKPFKIRMRGKKGKTHTVTIRPDKPVKLPGISSIQVERDSAGGSAGGSAGGS [r10_700_TrROS]
folding stability dG unfold [1]: -0.707 ± 0.8 kcal/mol | folding stability dG unfold [2]: -0.285 ± 0.27 kcal/mol

SAGGSAGGSAGGTPFKAKDPKTDKVYLGEKDPVSGKVTITDPNTGNPIIVPGGEIEFIVSAGGSAGGSAGGS [r10_28_JUSTAS]
folding stability dG unfold [1]: -0.282 ± 0.16 kcal/mol | folding stability dG unfold [2]: 0.00952 ± 0.041 kcal/mol

SAGGSAGGSAGGVVKFPDDVLIERVETLPDGTVKIKVYKRIPGKGSPVEEIEFEDPGSSSAGGSAGGSAGGS [r10_934_JUSTAS]
folding stability dG unfold [1]: < -1 kcal/mol | folding stability dG unfold [2]: 0.235 ± 0.024 kcal/mol

SAGGSAGGSAGGWKTISVNELQDILREEGKPMTADDLIEDPNIKVEENPGNGMPTIEIPPSAGGSAGGSAGG [r7_180_TrROS]
folding stability dG unfold [1]: -0.77 ± 0.79 kcal/mol | folding stability dG unfold [2]: -0.891 ± 0.24 kcal/mol

SAGGSAGGSAGGYFIRYPGNGREIMIPPDDIEDFLDTLPPGFPPENVKIYPFDPNGKPISAGGSAGGSAGGS [r10_13_TrROS]
folding stability dG unfold [1]: < -1 kcal/mol | folding stability dG unfold [2]: -0.242 ± 0.2 kcal/mol

SAGGSAGGSAGKITIHMDPEGNYMVKTPGNERQFDSPEDADELADEFLLNGLPIEIHPHPSAGGSAGGSAGG [r17_35_TrROS]
folding stability dG unfold [1]: < -1 kcal/mol | folding stability dG unfold [2]: -0.753 ± 0.36 kcal/mol

SAGGSAGGSAGKKVVTIDIPIDNPEELEVAEEIAREAAKELGVPPEEIPVTWEGNYLRIESAGGSAGGSAGG [r11_218_TrMRF]
folding stability dG unfold [1]: < -1 kcal/mol | folding stability dG unfold [2]: -0.423 ± 0.075 kcal/mol

SAGGSAGGSAGKSPSESEVVITPETGVVEENGVKIKVTLTITTYSPSSTVTSTTKDPKLLSAGGSAGGSAGG [r11_551_JUSTAS]
folding stability dG unfold [1]: -0.356 ± 0.15 kcal/mol | folding stability dG unfold [2]: -0.0836 ± 0.045 kcal/mol

SAGGSAGGSAGLNITYTTTITYPDGTVVTEPVVSSGSLEEAIARARELEKKHPNVEVEVSPEGSAGGSAGGS [r12_268_JUSTAS]
folding stability dG unfold [1]: -0.113 ± 0.23 kcal/mol | folding stability dG unfold [2]: 0.396 ± 0.079 kcal/mol

SAGGSAGGSAGMELAEEVARKGKPGTLVTFTPPGGRVQLATVRGDEVTPSGLSPDYSVTLTSAGGSAGGSAG [r3_244_JUSTAS]
folding stability dG unfold [1]: < -1 kcal/mol | folding stability dG unfold [2]: -0.371 ± 0.26 kcal/mol

SAGGSAGGSAGMIVIETPLSEYEKLKSPDIEVLEKSEGKVVIEIKVPPEPFYDEEGKPLKSAGGSAGGSAGG [r11_828_JUSTAS]
folding stability dG unfold [1]: 0.286 ± 0.13 kcal/mol | folding stability dG unfold [2]: 0.804 ± 0.034 kcal/mol

SAGGSAGGSAGMKIIVKSKEEAEKIAKEIAKKLGIEKKIKKIEIIVIPYKKTKDGKIEKISAGGSAGGSAGG [r17_237_TrROS_Hall]
folding stability dG unfold [1]: -0.184 ± 0.61 kcal/mol | folding stability dG unfold [2]: 0.36 ± 0.19 kcal/mol

SAGGSAGGSAGMPPGSIKVTVTSTAPDGTPSTTESTIPPSQVDKVKAEAAAKGWTVSFTGSAGGSAGGSAGG [r11_603_JUSTAS]
folding stability dG unfold [1]: 0.245 ± 0.068 kcal/mol | folding stability dG unfold [2]: 0.654 ± 0.034 kcal/mol

SAGGSAGGSAGMPPNTVVLRESLEPGRVVLTLAVVTPGSVASVEVTEEFPVVPGTGVVVGSAGGSAGGSAGG [r11_66_JUSTAS]
folding stability dG unfold [1]: 0.139 ± 0.13 kcal/mol | folding stability dG unfold [2]: 0.706 ± 0.038 kcal/mol
